# The supplement of paper PMC7125110
# ± gives the standard error. Fewer inactive variants are shown than the library holds.
# B1: glmS ribozyme (parent)
# chain: AUAAAAGCGCCAGAACUACAGAAAUGUAGUUGACGAGGAGGAGGUUUAUCGAAUUUUCGGCGGAUGCCUCCAAA
# Tests used:
# Conditions in all cases: with glucosamine-6-phosphate
# [1] = variants of: B1; assay: self-cleavage kobs at 640 uM GlcN6P; higher = faster cleavage; RNA array
# How it was run: (§1)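 Barcoded glmS ribozyme variants on sequenced MiSeq chips were transcribed in situ by E. coli RNA polymerase and tracked through a hybridised Cy3 probe at 37 °C. Glucosamine-6-phosphate (40 μM to 10 mM) in HEPES/KCl/Mg(OAc)2 buffer was flowed in, and tiles were imaged over ~14 h. Signals were normalised to baseline and to non-cleaving reference variants; per-tile medians were fit to one- or two-exponential decays to give kobs. kcat and KM came from weighted Michaelis–Menten fits across concentrations.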
# [2] = variants of: B1; assay: self-cleavage kobs at 2500 uM GlcN6P; higher = faster cleavage; RNA array
# How it was run: as §1
# [3] = variants of: B1; assay: self-cleavage kobs at 10000 uM GlcN6P; higher = faster cleavage; RNA array
# How it was run: as §1
Variant,self-cleavage kobs at 640 uM GlcN6P [1],self-cleavage kobs at 2500 uM GlcN6P [2],self-cleavage kobs at 10000 uM GlcN6P [3]
A14C C16G G29U,0.000294 ± 5.1e-05 s⁻¹,0.000837 ± 0.00017 s⁻¹,
A14U A36C G37A G38A,< 1e-05 s⁻¹,,
C16U A33G C68G,5.07e-05 ± 2.3e-05 s⁻¹,,
A15U U49G A64C,< 1e-05 s⁻¹,,
A12U A15G A42U,0.000151 ± 4.6e-05 s⁻¹,,
C16A G40U U57G,< 1e-05 s⁻¹,< 1e-05 s⁻¹,
G13A G44U,< 1e-05 s⁻¹,< 1e-05 s⁻¹,
G13C A15U C61U,< 1e-05 s⁻¹,,
A14C U49G C70G,0.000526 ± 0.00023 s⁻¹,,
A14G G29U A39U,0.00293 ± 0.0011 s⁻¹,,
A12C U31A U57A,4.6e-05 ± 2.3e-05 s⁻¹,4.93e-05 ± 1.6e-05 s⁻¹,
A14C G29A G35A G59A,< 1e-05 s⁻¹,< 1e-05 s⁻¹,
G26U C71A,0.000733 ± 0.0002 s⁻¹,0.000394 ± 0.0001 s⁻¹,
A15U U30G U69A,0.000116 ± 2.5e-05 s⁻¹,0.000105 ± 2.9e-05 s⁻¹,
A12C G29C G37A U55A,4.45e-05 ± 1.9e-05 s⁻¹,,
A15U C16U G51C C58G C61G C67U,0.000417 ± 8.1e-05 s⁻¹,,
A15U U30A A53U C58A U65C U69A C71G,4.92e-05 ± 2e-05 s⁻¹,,

Variant,self-cleavage kobs at 640 uM GlcN6P [1],self-cleavage kobs at 2500 uM GlcN6P [2],self-cleavage kobs at 10000 uM GlcN6P [3]
A12G U47A G62U C67G C68G,0.000122 ± 3.6e-05 s⁻¹,,
C16G G59C C61U,< 1e-05 s⁻¹,< 1e-05 s⁻¹,
A15C C58G C70A,5.23e-05 ± 1.5e-05 s⁻¹,4e-05 ± 2e-05 s⁻¹,
A14U A39C A64G,0.000213 ± 5e-05 s⁻¹,0.000771 ± 0.0002 s⁻¹,
A12C C70G C71G,5.18e-05 ± 2.5e-05 s⁻¹,4.37e-05 ± 1.9e-05 s⁻¹,
A12U A14C G29C,4.97e-05 ± 2e-05 s⁻¹,0.000232 ± 7.7e-05 s⁻¹,
A12G U55G G62C,< 1e-05 s⁻¹,,< 1e-05 s⁻¹
A12U U56A C58G,0.000155 ± 2.6e-05 s⁻¹,0.000526 ± 9e-05 s⁻¹,
A12U G13A G29A U45G,< 1e-05 s⁻¹,< 1e-05 s⁻¹,
G13U U31C G43C,< 1e-05 s⁻¹,< 1e-05 s⁻¹,< 1e-05 s⁻¹
A15U U49C C68G,0.00159 ± 0.00057 s⁻¹,,
A15U C16A U47A C61G C68G,8.84e-05 ± 3.3e-05 s⁻¹,,
A15U U31C G41U C70U,3.6e-05 ± 1.4e-05 s⁻¹,,6.84e-05 ± 1.3e-05 s⁻¹
A12U U31G U45G A53U,0.00024 ± 6.1e-05 s⁻¹,0.00101 ± 0.00033 s⁻¹,
A12C G29C U30G,0.000163 ± 2.9e-05 s⁻¹,0.000329 ± 8.6e-05 s⁻¹,
A12C C34G G40U,< 1e-05 s⁻¹,< 1e-05 s⁻¹,
